Laboratory results as given in publication PMC6220203 (2018).

Molecular target: Biotinylated aMD5 (C-terminal biotinylated macrocycle) (macrocyclized; biotin (NHS-biotin) on the added C-terminal Lys)
Assay: SPR

koff: 0.00041 s⁻¹
B1: MET receptor extracellular domain SEMA–IPT4 (residues 1–931)-Fc (Fc fusion)
chain: ECKEALAKSEMNVNMKYQLPNFTAETPIQNVILHEHHIFLGATNYIYVLNEEDLQKVAEYKTGPVLEHPDCFPCQDCSSKANLSGGVWKDNINMALVVDTYYDDQLISCGSVNRGTCQRHVFPHNHTADIQSEVHCIFSPQIEEPSQCPDCVVSALGAKVLSSVKDRFINFFVGNTINSSYFPDHPLHSISVRRLKETKDGFMFLTDQSYIDVLPEFRDSYPIKYVHAFESNNFIYFLTVQRETLDAQTFHTRIIRFCSINSGLHSYMEMPLECILTEKRKKRSTKKEVFNILQAAYVSKPGAQLARQIGASLNDDILFGVFAQSKPDSAEPMDRSAMCAFPIKYVNDFFNKIVNKNNVRCLQHFYGPNHEHCFNRTLLRNSSGCEARRDEYRTEFTTALQRVDLFMGQFSEVLLTSISTFIKGDLTIANLGTSEGRFMQVVVSRSGPSTPHVNFLLDSHPVSPEVIVEHTLNQNGYTLVITGKKITKIPLNGLGCRHFQSCSQCLSAPPFVQCGWCHDKCVRSEECLSGTWTQQICLPAIYKVFPNSAPLEGGTRLTICGWDFGFRRNNKFDLKKTRVLLGNESCTLTLSESTMNTLKCTVGPAMNKHFNMSIIISNGHGTTQYSTFSYVDPVITSISPKYGPMAGGTLLTLTGNYLNSGNSRHISIGGKTCTLKSVSNSILECYTPAQTISTEFAVKLKIDLANRETSIFSYREDPIVYEIHPTKSFISGGSTITGVGKNLNSVSVPRMVINVHEAGRNFTVACQHRSNSEIICCTTPSLQQLNLQLPLKTKAFFMLDGILSKYFDLIYVHNPVFKPFEKPVMISMGNENVLEIKGNDIDPEAVKGEVLKVGNKSCENIHLHSEAVLCTVPNDLLKLNSELNIEWKQAISSTVLGKVIVQPDQNF
